Target: 6His-S-Importin β(1-876), full-length WT human importin β (human, UniProt Q14974 1-876)
Test: FRET; displacement of importin β-bound Rango

6His-S-Importin β(1-876), full-length WT human importin β, sequence (Q14974 whole entry): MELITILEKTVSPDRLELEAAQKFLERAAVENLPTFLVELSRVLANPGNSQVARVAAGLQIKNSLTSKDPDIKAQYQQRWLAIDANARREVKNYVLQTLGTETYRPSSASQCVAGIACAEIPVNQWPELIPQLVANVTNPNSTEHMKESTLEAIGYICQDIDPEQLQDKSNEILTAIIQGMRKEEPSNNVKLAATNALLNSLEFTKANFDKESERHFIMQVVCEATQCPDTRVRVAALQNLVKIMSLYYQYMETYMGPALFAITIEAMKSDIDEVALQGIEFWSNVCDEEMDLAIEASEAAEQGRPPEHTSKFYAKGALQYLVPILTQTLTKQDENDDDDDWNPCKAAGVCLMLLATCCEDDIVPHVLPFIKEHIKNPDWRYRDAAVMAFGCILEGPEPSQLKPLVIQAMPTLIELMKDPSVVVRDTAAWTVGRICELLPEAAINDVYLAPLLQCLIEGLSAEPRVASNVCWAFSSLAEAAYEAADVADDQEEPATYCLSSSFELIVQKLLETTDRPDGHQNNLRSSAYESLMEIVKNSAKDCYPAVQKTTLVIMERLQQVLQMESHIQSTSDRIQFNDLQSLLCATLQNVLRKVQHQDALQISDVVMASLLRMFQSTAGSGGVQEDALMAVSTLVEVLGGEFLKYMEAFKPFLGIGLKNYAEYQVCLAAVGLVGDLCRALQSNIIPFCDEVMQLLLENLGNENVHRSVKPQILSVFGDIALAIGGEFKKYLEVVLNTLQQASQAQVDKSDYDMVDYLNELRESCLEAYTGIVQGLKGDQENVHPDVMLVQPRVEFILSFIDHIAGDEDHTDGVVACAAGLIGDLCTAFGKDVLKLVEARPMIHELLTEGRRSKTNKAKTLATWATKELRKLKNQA

PRPRPRPRPRPRPRPRPRPRKC was tested, and the Kd was 8.2 nM.

From article PMC7051184 (2020)
